Patent publication US11198713B2, “Agents modulating beta-catenin functions and methods thereof” (FOG PHARMACEUTICALS, INC., priority 2017, dated 2021)
Bridge positions count the residues as written; N and C are the ends. Square brackets hold non-standard residues; d marks the D form. Primed or numbered codes have the meaning given here. MB(8) = Monomer B (PyrS), pyrrolidine stapling residue bearing N-allyl carbamate (Alloc), forms carbamate staple with R8 by ring-closing olefin metathesis, i to i+7; MB(9) = Monomer B (PyrS), pyrrolidine stapling residue with N-allyloxycarbonyl (Alloc), forms a carbamate staple with R8 by olefin metathesis; MB″ = Monomer B (PyrS), pyrrolidine stapling residue with N-allyl carbamate, forms carbamate staple with R8 by olefin metathesis; MB(6) = Monomer B (PyrS), N-Alloc pyrrolidine stapling residue, forms carbamate staple with R8 by olefin metathesis; Ala(2-furyl) = N[C@@H](Cc1ccco1)C(=O)O; 2Pal = N[C@@H](Cc1ccccn1)C(=O)O; R8 = C=CCCCCCC[C@@](C)(N)C(=O)O; Cha = N[C@@H](CC1CCCCC1)C(=O)O; Cba = N[C@@H](CC1CCC1)C(=O)O; Tle = CC(C)(C)[C@H](N)C(=O)O; Nva = CCC[C@H](N)C(=O)O

B1: FP0557c Isomer 2 (peptide)
peptide: Ac-A[R8]ILDA[2Pal]I[MB(9)]LVW-NH2
modifications: staple 2-9; not fully specified; printed as Ac-A-R8-I-L-D-A-2pyr-I-MB-L-V-W-NH2
B2: FP0558c Isomer 1 (peptide)
peptide: Ac-A[R8]ILDA[2Pal]I[MB(9)]NVW-NH2
modifications: staple 2-9; not fully specified; printed as Ac-A-R8-I-L-D-A-2pyr-I-MB-N-V-W-NH2
B3: FP0558c Isomer 2 (peptide)
peptide: Ac-A[R8]ILDA[2Pal]I[MB(9)]NVW-NH2
modifications: staple 2-9; not fully specified; printed as Ac-A-R8-I-L-D-A-2pyr-I-MB-N-V-W-NH2
B4: FP0559c Isomer 1 (peptide)
peptide: Ac-A[R8]ILDA[2Pal]I[MB(9)]QVW-NH2
modifications: staple 2-9; not fully specified; printed as Ac-A-R8-I-L-D-A-2pyr-I-MB-Q-V-W-NH2
B5: FP0559c Isomer 2 (peptide)
peptide: Ac-A[R8]ILDA[2Pal]I[MB(8)]QVW-NH2
modifications: staple 2-9; not fully specified; printed as Ac-A-R8-I-L-D-A-2pyr-I-MB-Q-V-W-NH2
B6: FP0560c Isomer 1 (peptide)
peptide: Ac-A[R8]ILDA[2Pal]I[MB(8)]SVW-NH2
modifications: staple 2-9; not fully specified; printed as Ac-A-R8-I-L-D-A-2pyr-I-MB-S-V-W-NH2
B7: FP0560c Isomer 2 (peptide)
peptide: Ac-A[R8]ILDA[2Pal]I[MB(8)]SVW-NH2
modifications: staple 2-9; not fully specified; printed as Ac-A-R8-I-L-D-A-2pyr-I-MB-S-V-W-NH2
B8: FP0561c Isomer 1 (peptide)
peptide: Ac-A[R8]ILDA[2Pal]I[MB(8)]TVW-NH2
modifications: staple 2-9; not fully specified; printed as Ac-A-R8-I-L-D-A-2pyr-I-MB-T-V-W-NH2
B9: FP0561c Isomer 2 (peptide)
peptide: Ac-A[R8]ILDA[2Pal]I[MB(8)]TVW-NH2
modifications: staple 2-9; not fully specified; printed as Ac-A-R8-I-L-D-A-2pyr-I-MB-T-V-W-NH2
B10: FP0562c Isomer 1 (peptide)
peptide: Ac-A[R8]ILDA[2Pal]I[MB(8)]VVW-NH2
modifications: staple 2-9; not fully specified; printed as Ac-A-R8-I-L-D-A-2pyr-I-MB-V-V-W-NH2
B11: FP0562c Isomer 2 (peptide)
peptide: Ac-A[R8]ILDA[2Pal]I[MB(8)]VVW-NH2
modifications: staple 2-9; not fully specified; printed as Ac-A-R8-I-L-D-A-2pyr-I-MB-V-V-W-NH2
B12: FP0563c Isomer 1 (peptide)
peptide: Ac-A[R8]ILDA[2Pal]I[MB″]WVW-NH2
modifications: staple 2-9; not fully specified; printed as Ac-A-R8-I-L-D-A-2pyr-I-MB-W-V-W-NH2
B13: FP0563c Isomer 2 (peptide)
peptide: Ac-A[R8]ILDA[2Pal]I[MB″]WVW-NH2
modifications: staple 2-9; not fully specified; printed as Ac-A-R8-I-L-D-A-2pyr-I-MB-W-V-W-NH2
B14: FP0564c Isomer 1 (peptide)
peptide: Ac-A[R8]ILDA[2Pal]I[MB″]YVW-NH2
modifications: staple 2-9; not fully specified; printed as Ac-A-R8-I-L-D-A-2pyr-I-MB-Y-V-W-NH2
B15: FP0564c Isomer 2 (peptide)
peptide: Ac-A[R8]ILDA[2Pal]I[MB″]YVW-NH2
modifications: staple 2-9; not fully specified; printed as Ac-A-R8-I-L-D-A-2pyr-I-MB-Y-V-W-NH2
B16: FP0565c Isomer 1 (peptide)
peptide: Ac-A[R8]ILDA[2Pal]I[MB″][Cba]VW-NH2
modifications: staple 2-9; not fully specified; printed as Ac-A-R8-I-L-D-A-2pyr-I-MB-Cba-V-W-NH2
B17: FP0565c Isomer 2 (peptide)
peptide: Ac-A[R8]ILDA[2Pal]I[MB(6)][Cba]VW-NH2
modifications: staple 2-9; not fully specified; printed as Ac-A-R8-I-L-D-A-2pyr-I-MB-Cba-V-W-NH2
B18: FP0566c Isomer 1 (peptide)
peptide: Ac-A[R8]ILDA[2Pal]I[MB(6)][Cha]VW-NH2
modifications: staple 2-9; not fully specified; printed as Ac-A-R8-I-L-D-A-2pyr-I-MB-Cha-V-W-NH2
B19: FP0567c Isomer 1 (peptide)
peptide: Ac-A[R8]ILDA[2Pal]I[MB(6)][Nva]VW-NH2
modifications: staple 2-9; not fully specified; printed as Ac-A-R8-I-L-D-A-2pyr-I-MB-Nva-V-W-NH2
B20: FP0567c Isomer 2 (peptide)
peptide: Ac-A[R8]ILDA[2Pal]I[MB(6)][Nva]VW-NH2
modifications: staple 2-9; not fully specified; printed as Ac-A-R8-I-L-D-A-2pyr-I-MB-Nva-V-W-NH2
B21: FP0568c Isomer 1 (peptide)
peptide: Ac-A[R8]ILDA[2Pal]I[MB(6)][Tle]VW-NH2
modifications: staple 2-9; not fully specified; printed as Ac-A-R8-I-L-D-A-2pyr-I-MB-tLeu-V-W-NH2
B22: FP0568c Isomer 2 (peptide)
peptide: Ac-A[R8]ILDA[2Pal]I[MB(6)][Tle]VW-NH2
modifications: staple 2-9; not fully specified; printed as Ac-A-R8-I-L-D-A-2pyr-I-MB-tLeu-V-W-NH2
B23: FP0569c Isomer 1 (peptide)
peptide: Ac-A[R8]ILDA[2Pal]I[MB(6)][Ala(2-furyl)]VW-NH2
modifications: staple 2-9; not fully specified; printed as Ac-A-R8-I-L-D-A-2pyr-I-MB-fur-V-W-NH2
B24: FP0569c Isomer 2 (peptide)
peptide: Ac-A[R8]ILDA[2Pal]I[MB(6)][Ala(2-furyl)]VW-NH2
modifications: staple 2-9; not fully specified; printed as Ac-A-R8-I-L-D-A-2pyr-I-MB-fur-V-W-NH2

biological target: T1, full-length beta-catenin (UniProt P35222 2-781, limits assumed); test: competition FP; NB = no binding detected
T1 construct: mature; also called full-length ß-Catenin; β-catenin
T1 sequence (looked up): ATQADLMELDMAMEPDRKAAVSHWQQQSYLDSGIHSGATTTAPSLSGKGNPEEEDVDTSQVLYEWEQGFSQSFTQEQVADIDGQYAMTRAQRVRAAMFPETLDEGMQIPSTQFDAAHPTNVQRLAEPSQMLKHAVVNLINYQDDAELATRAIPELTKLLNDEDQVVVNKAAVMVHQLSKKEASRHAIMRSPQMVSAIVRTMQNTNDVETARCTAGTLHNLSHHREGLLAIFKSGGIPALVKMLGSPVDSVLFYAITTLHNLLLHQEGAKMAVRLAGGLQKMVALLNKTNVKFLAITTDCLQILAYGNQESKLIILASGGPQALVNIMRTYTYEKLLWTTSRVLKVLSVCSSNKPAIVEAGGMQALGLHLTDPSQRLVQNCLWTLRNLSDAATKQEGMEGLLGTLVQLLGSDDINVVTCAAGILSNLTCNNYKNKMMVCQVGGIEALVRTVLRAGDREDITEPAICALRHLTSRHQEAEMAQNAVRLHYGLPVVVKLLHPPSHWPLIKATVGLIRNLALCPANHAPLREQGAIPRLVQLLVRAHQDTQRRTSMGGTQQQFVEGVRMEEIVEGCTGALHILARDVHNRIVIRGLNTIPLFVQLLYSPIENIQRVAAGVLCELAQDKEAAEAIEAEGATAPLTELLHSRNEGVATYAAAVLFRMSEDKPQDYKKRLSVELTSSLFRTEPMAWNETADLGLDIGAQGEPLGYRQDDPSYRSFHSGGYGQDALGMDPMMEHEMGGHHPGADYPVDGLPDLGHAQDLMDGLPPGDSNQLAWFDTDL
Method: In some embodiments, a competition fluorescence polarization assay is used to assess binding of provided compounds to beta-catenin. In an exemplary procedure, solutions of provided compounds, e.g., provided stapled peptides, were prepared in a buffer (e.g., 50 mM Tris pH 8.0, 250 mM NaCl, 2% glycerol, 0.5 mM EDTA, 0.02% w/v sodium azide) using a 3-fold serial dilution from 5 µM. Probe solution (15 nM full-length ß-Catenin, 20 nM FITC labeled peptide in buffer) was prepared and incubated for a period of time, e.g., 5 minutes, and the a volume, e.g., 40 µL per well plated in suitable plate, e.g., a black polystyrene 384-well plate (Corning). Equal volume of the serial diluted peptide was added to the plate and incubated protected from light for 15 minutes prior to read. Reads were performed on a Spectramax M5 (Molecular Devices) in duplicate. Suitable probe was FITC-PEG1-PQ-S5-ILD-S5-HVRRVWR (SEQ ID NO: 1) (hydrocarbon staple formed by two S5 via olefin metathesis) and/or FITC-bA-PQ-S5-ILD-S5-HVRRVWR (SEQ ID NO: 3) (hydrocarbon staple formed by two S5 via olefin metathesis). […] Another peptide, FPO217c (Ac-AR_8ILDAHIM$B5$RVW (SEQ ID NO: 280), with N-terminal proline removed and valine replaced with isoleucine compared to FP0025c) was prepared.

Binding result, no binding:
B1, B2, B3, B4, B5, B6, B7, B8, B9, B10, B11, B12, B13, B14, B15, B16, B17, B18, B19, B20, B21, B22, B23, B24
